Patent US20200362026A1 (INSTITUTE FOR RESEARCH IN BIOMEDICINE, published 2020)

T1: FcγRIIa (UniProt P12318 34-317, limits assumed)
T1 construct: whole, on cells; also called FcgRIIa; Fcγ receptor IIa
T1 sequence (looked up): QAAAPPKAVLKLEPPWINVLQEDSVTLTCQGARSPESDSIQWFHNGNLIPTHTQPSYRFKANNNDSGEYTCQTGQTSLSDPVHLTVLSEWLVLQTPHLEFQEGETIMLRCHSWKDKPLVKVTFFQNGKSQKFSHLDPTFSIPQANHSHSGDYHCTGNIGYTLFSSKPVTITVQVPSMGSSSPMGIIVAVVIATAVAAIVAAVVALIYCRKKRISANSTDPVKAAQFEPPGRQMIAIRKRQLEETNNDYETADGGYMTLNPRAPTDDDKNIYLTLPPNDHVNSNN

T2: FcγRIIb (UniProt P31994 43-310, limits assumed)
T2 construct: whole, on cells; also called FcgRIIb; Fcγ receptor IIb
T2 sequence (looked up): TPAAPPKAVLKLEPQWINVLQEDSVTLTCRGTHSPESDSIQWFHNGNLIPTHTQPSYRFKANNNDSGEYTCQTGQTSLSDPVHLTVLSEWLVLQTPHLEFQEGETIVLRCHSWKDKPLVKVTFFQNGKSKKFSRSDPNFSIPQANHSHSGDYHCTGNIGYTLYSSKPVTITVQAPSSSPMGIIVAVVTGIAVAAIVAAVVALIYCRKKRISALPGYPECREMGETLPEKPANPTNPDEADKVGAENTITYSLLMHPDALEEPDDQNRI

T3: mouse GM-CSF (mouse, UniProt P01587 18-141)
T3 sequence (looked up): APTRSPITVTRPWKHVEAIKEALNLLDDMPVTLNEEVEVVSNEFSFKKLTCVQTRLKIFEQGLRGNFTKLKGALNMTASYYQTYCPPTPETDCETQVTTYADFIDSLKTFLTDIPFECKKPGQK

T4: rat GM-CSF (rat, UniProt P48750 18-144)
T4 sequence (looked up): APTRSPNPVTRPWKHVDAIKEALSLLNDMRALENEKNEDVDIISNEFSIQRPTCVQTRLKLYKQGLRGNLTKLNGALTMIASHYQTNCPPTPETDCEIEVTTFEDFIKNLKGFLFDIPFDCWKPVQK

B1: Ts1GC1 trispecific antibody (antibody, human IgG1, kappa)
heavy: not shown
light: DIQMTQSPSTLSTSVGDRVTITCRASQNILNWLAWYQQKPGNAPNLLIYKASDLQSGVPSRFSGSGSGTEFTLTISSLQPDDFATYYCQHYNSYPLTFGGGTKVEIKRTVAAPSVFIFPPSDEQLKSGTASVVCLLNNFYPREAKVQWKVDNALQSGNSQESVTEQDSKDSTYSLSSTLTLSKADYEKHKVYACEVTHQGLSSPVTKSFNRGEC
notes: Trispecific hexavalent IgG1, construct type Ts1; specificities GCA21 + GCA7 + GCB59; also called TsGC1
B2: GCE536 (antibody, human IgG1, kappa, V domains shown)
VH: QLQLVQSGTEVKKPGASVKVSCKSSGYVFTSYYLVWVRQAPGQGLEWMATISPGDVNTSYEQRFQGRVTVTTDASTNTVDMELRSLRSEDTAVYYCARGPRSKPPYLYFALDVWGQGTAVTVSS
VL: EIVLTQSPGTLSLSPGETAILSCRASQSVSSSLLAWYQQKPGQAPRLLIYGASNRATGIRGRFSGSGSGTDFTLTISRLEPEDFVLYYCQHYGSRVTFGQGTKLEIKR
notes: also called GCE536 antibody
B3: GCA21 (antibody, IgG1, V domains shown)
VH: QVQLMESGGGVVQPGRSLRLSCSAFGFTFSNYPMHWVRQAPGKGLEWVAIILPDGNRKNYGRSVTGRFTISRDNSNNSLYLQMNNLTTEDTAMYYCTRDGTYYSNGGVYQTYRRFFDFWGRGTLVTVSS
VL: DIQMTQSPSTLSTSVGDRVTITCRASQNILNWLAWYQQKPGNAPNLLIYKASDLQSGVPSRFSGSGSGTEFTLTISSLQPDDFATYYCQHYNSYPLTFGGGTKVEIKR
notes: also called GCA21 antibody
B4: GCA7 (antibody, human IgG1, kappa, V domains shown)
VH: GVQLVQSGGGLVQPGGSLRLSCAASGFTVSTNYMSWVRQAPGKGLEWVSILYAGGVTRYADSVKTRFTISRDNSKNTLFLQMNALSAEDTAIYYCAKHYDSGYSTIDHFDSWGQGTLVTVSS
VL: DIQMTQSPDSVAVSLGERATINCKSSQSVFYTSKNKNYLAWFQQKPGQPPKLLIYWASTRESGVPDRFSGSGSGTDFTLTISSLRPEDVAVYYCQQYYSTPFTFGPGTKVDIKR
notes: also called GCA7 antibody
B5: Namilumab (antibody, V domains shown)
VH: QVQLVQSGAEVKKPGASVKVSCKAFGYPFTDYLLHWVRQAPGQGLEWVGWLNPYSGDTNYAQKFQGRVTMTRDTSISTAYMELSRLRSDDTAVYYCTRTTLISVYFDYWGQGTMVTVSS
VL: DIQMTQSPSSVSASVGDRVTIACRASQNIRNILNWYQQRPGKAPQLLIYAASNLQSGVPSRFSGSGSGTDFTLTINSLQPEDFATYYCQQSYSMPRTFGGGTKLEIK
B6: GCB59 (antibody, IgG1, V domains shown)
VH: EVQLVESGGDLVKAGGSLRLSCAVSGLSFSSSGMNWVRQAPGKGLEWISSISGSQNYKYYADSVKGRFVVSRDNARNFLYLQMDSLRAEDTAVYFCVGGFPYWLPPSDFSGFHVWGQGTTVTVSS
VL: SYVLTQPPSVSVAPGQTASLTCGGTNIGSKSVHWYQQKAGQAPVLVVYADNDRPSGVPERFSGSNSGNTATLTISRVEAEDESDYFCQVWDGNTDHVVFGGGTKLTVLG
notes: also called GCB59 antibody

Key:
FcγRIIa [1] = biological target: T1, FcγRIIa; assay: flow cytometry, TZM-bl cells expressing FcγRIIa, immune complex with high GM-CSF
Description: (§1) To address the engagement of Fcγ receptors, immune complexes formed between GM-CSF and multispecific antibodies were tested for their capacity to bind to TZM-b1 cells expressing FcγRIIa and FcγRIIb receptors. Multispecific antibodies were mixed with 0.05 μg/ml of GM-CSF, or staining buffer. Samples were incubated at 37° C. for 30 min to allow the formation of immune complexes and then cooled down to 4° C. before adding them to TZM-b1 cells for 30 minutes. Cells were washed twice and stained with anti-human IgG Fcγ fragment specific F(ab′)2 fragment. Samples were analyzed on BD FACSCanto (BD Biosciences) and median intensity fluorescence was analyzed and compared between samples.

FcγRIIb [2] = biological target: T2, FcγRIIb; assay: flow cytometry, TZM-bl cells expressing FcγRIIb, immune complex with high GM-CSF
Description: (§2) Expression of specific FcγRs was assessed by staining TZM-b1 cells with FITC-conjugated anti-CD64 (anti-FcγRI), anti-CD32 (anti-FcγRIIa and anti-FcγRIIb) and anti-CD16 (anti-FcγRIIIa) antibodies (all from BD Pharmingen). Untrasfected and transfected TZM-b1 cells were washed with staining buffer (PBS with 10% Fetal Bovine Serum and 2 mM EDTA) and seeded in 96-well-plates at a density of 50,000 cells per well. […] The LALA versions of all antibodies and a mAb with a different specificity were included as controls. Samples were incubated at 37° C. for 30 min to allow the formation of immune complexes and then cooled down to 4° C. before adding them to TZM-b1 cells for 30 min. Cells were washed twice and stained with anti-human IgG Fcγ fragment specific F(ab′)2 fragment (Jackson ImmunoResearch). Samples were analyzed on BD FACSCanto (BD Biosciences) and median intensity fluorescence was analyzed and compared between samples.
as §1

[3] = biological target: T5, human GM-CSF (granulocyte macrophage-colony stimulating factor) (human, UniProt P04141 18-144); assay: SPR; GM-CSF injected at 400, 200, 100, 50, 25 nM and buffer over Ts1GC1; 120 s association, 600 s dissociation
T5 construct: Soluble cytokine used in ELISA, SPR, TF-1 bioassay and immune complex formation; also called recombinant GM-CSF
Description: (§3) The kinetics of binding was determined by surface plasmon resonance (SPR). […] HEPES buffered saline (HBS) (10 mM HEPES, pH 7.4, 150 mM NaCl, 3 mM EDTA, 0.005% surfactant Tween-20) was used as running buffer. All injections were made at flow rate of 100 µl/min. […] Injection time and dissociation time were 120 s and 600 s, respectively. Each binding interaction of mAbs with GM-CSF was assessed using a ProteON XPR36 instrument (Biorad) and data processed with ProteOn Manager Software. Ka, Kd and KD were calculated applying the Langmuir fit model.
All multispecific antibodies were tested for binding to GM-CSF by ELISA.

FcγRIIb [4] = biological target: T2, FcγRIIb; assay: flow cytometry, TZM-bl cells expressing FcγRIIb, mAb alone (w/o GM-CSF)
Description: as §2, §1

FcγRIIb [5] = biological target: T2, FcγRIIb; assay: flow cytometry, TZM-bl FcγRIIb cells; average ratio of binding in presence and in absence of GM-CSF
Description: as §2, §1

FcγRIIa [6] = biological target: T1, FcγRIIa; assay: flow cytometry, TZM-bl cells expressing FcγRIIa, immune complex with low GM-CSF
Description: as §2, §1

FcγRIIb [7] = biological target: T2, FcγRIIb; assay: flow cytometry, TZM-bl cells expressing FcγRIIb, immune complex with low GM-CSF
Description: as §2, §1

FcγRIIa [8] = biological target: T1, FcγRIIa; assay: flow cytometry, TZM-bl cells expressing FcγRIIa, mAb alone (w/o GM-CSF)
Description: as §2, §1

[9] = biological target: T5, human GM-CSF (granulocyte …); assay: ELISA on GM-CSF
FcγRIIa [10] = biological target: T1, FcγRIIa; assay: flow cytometry, TZM-bl FcγRIIa cells; average ratio of binding in presence and in absence of GM-CSF
Description: as §1

[11] = biological target: T5, human GM-CSF (granulocyte …); assay: cell-based or functional assay
[12] = biological target: T5, human GM-CSF (granulocyte …); assay: ELISA on human GM-CSF
Description: All antibodies were recombinantly produced as IgG1 by transient transfection of HEK 293 Freestyle Cells (Invitrogen) using polyethylenimine (PEI). The antibodies were then tested for binding to human GM-CSF by ELISA. […] The EC50 values (ng/ml) were determined by ELISA and calculated for every sample by nonlinear regression analysis using GraphPad Prism 5 software.

mouse GM-CSF = biological target: T3, mouse GM-CSF; assay: ELISA
rat GM-CSF = biological target: T4, rat GM-CSF; assay: ELISA
[13] = biological target: T5, human GM-CSF (granulocyte …); assay: SPR (ProteOn), mAb captured on protein A, GM-CSF as analyte, Langmuir fit
Description: as §3

[14] = biological target: T5, human GM-CSF (granulocyte …); assay: cell-based or functional assay; remark: listed apart in the source

T5 sequence (P04141 18-144 limits assumed): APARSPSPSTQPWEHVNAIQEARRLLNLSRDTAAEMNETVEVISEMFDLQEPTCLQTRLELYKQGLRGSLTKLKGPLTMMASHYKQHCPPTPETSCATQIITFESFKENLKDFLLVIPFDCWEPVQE

Row | Binder | IC90 less stringent conditions (50 pg/ml GM-CSF, 1,000 TF-1/well) [11] [µg/mL] | IC90 more stringent conditions (500 pg/ml GM-CSF, 1,000 TF-1/well) [11] [µg/mL] | IC90 stringent conditions (50 pg/ml GM-CSF, 10,000 TF-1/well) [11] [µg/mL] | IC90 very stringent conditions (500 pg/ml GM-CSF, 10,000 TF-1/well) [11] [µg/mL] | EC50 [12] [µg/mL] | binding result (mouse GM-CSF) | binding result (rat GM-CSF) | Kd [13] [nM] | koff [13] [s⁻¹] | kon [13] [M⁻¹ s⁻¹] | other results
1 | B1 | 0.000352 | 0.00296 | 0.000283 | 0.00281 | – | – | – | – | – | – | MFI (FcγRIIa [1]): 216000 MFI; MFI (FcγRIIb [2]): 1.23e+06 MFI; Kd [3]: 0.0875 nM; koff [3]: 3.46e-05 s⁻¹; kon [3]: 395000 M⁻¹ s⁻¹; MFI (FcγRIIb [4]): 350000 MFI; Average RATIO FcgRIIb (FcγRIIb [5]): 2.51 ratio; MFI (FcγRIIa [6]): 118000 MFI; MFI (FcγRIIb [7]): 528000 MFI; MFI (FcγRIIa [8]): 52400 MFI; EC50 [9]: 0.027 µg/mL; Average RATIO FcgRIIa (FcγRIIa [10]): 3.18 ratio
2 | B2 | – | – | – | – | 0.0614 | no binding | no binding | 0.18 | 0.00011 | 660000 | –
3 | B3 | – | – | – | – | 0.0594 | no binding | no binding | 0.69 | 0.00065 | 950000 | –
4 | B4 | – | – | – | – | 0.187 | no binding | no binding | 0.38 | 6e-05 | 240000 | –
5 | B5 | 0.177 | 1.97 | 0.798 | 19.8 | 0.0753 | – | – | 0.24 | 7.7e-05 | 310000 | fold greater concentration than Ts1GC2a, less stringent conditions [14]: 690 fold
6 | B6 | – | – | – | – | 0.308 | no binding | no binding | 0.68 | 0.0012 | 1.7e+06 | –
